Test [1] deals with T1, UDG enzyme of B. subtilis (Bacillus subtilis, UniProt P39615 1-225).
T1 construct: Endogenous enzyme of the B. subtilis 110NA extract, identified by peptide mass fingerprinting (MASCOT); also called UDG of B. subtilis; protein D
T1 sequence: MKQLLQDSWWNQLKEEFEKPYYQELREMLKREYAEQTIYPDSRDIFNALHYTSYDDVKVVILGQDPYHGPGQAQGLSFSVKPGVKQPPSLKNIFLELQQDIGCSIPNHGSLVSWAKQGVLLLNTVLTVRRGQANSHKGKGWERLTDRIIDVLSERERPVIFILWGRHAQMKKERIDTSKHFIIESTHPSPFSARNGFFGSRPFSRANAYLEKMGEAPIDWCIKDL
In words: affinity chromatography of B. subtilis 110NA[pPR53.p56FLAG] lysate on anti-FLAG M2 column, elution with FLAG peptide, SDS gel, peptide mass fingerprinting.
Description: In order to analyse whether the UDG enzyme is a cellular target of protein p56, affinity chromatography assays were performed. […] The culture was concentrated 10-fold in TBS buffer (50 mM Tris-HCl, pH 7.5, 150 mM NaCl) and was lysed using the French press (20,000 psi). The lysate was centrifuged at 7,000 rpm and 4° C. in the Sorvall-SS.34 rotor for 10 minutes. The supernatant was loaded in an anti-FLAG M2 column (Sigma). The proteins bound to the column were eluted with the TBS buffer containing the FLAG peptide (500 μg/ml) (Sigma). […] The gel was stained with SyproRuby (Molecular Probes). As a negative control, an extract from the 110NA[pPR53] strain was used.

Another test has as its target T2, UDG enzyme of E. coli (E. coli, UniProt P12295 2-229).
T2 construct: Commercial enzyme; also called UDG of E. coli (New England Biolabs)
T2 sequence: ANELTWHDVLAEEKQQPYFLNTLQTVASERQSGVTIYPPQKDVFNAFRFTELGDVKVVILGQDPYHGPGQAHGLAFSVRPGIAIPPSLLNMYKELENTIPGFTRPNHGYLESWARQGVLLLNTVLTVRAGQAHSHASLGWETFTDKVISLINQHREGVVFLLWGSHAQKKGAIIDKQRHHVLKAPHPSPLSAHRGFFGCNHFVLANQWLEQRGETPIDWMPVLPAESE
In words: native polyacrylamide gel (16%) of p56 (2 µg) incubated with E. coli UDG (0.2 µg); Western blot and peptide mass fingerprinting of the band.

The record followed here is patent US20100120675A1 (CONSEJO SUPERIOR DE INVESTIGACIONES CIENTIFICAS, published 2010).

B1: protein p56FLAG (other)
chain: MVQNDFVDSYDVTMLLQDDDGKQYYEYHKGLSLSDFEVLYGNTADEIIKLRLDKVLDYKDDDDK
notes: Produced constitutively in B. subtilis 110NA[pPR53.p56FLAG]; Captured from the cell lysate on an anti-FLAG M2 column
For the molecule B1, in test [1], the binding result is given as “binds”.

B2: protein p56 of the phi29 (φ29) bacteriophage (other)
chain: MVQNDFVDSYDVTMLLQDDDGKQYYEYHKGLSLSDFEVLYGNTADEIIKLRLDKVL
notes: Untagged, purified as in section 1.4; also called protein of the invention
In the case of B2, the binding result in the test with UDG enzyme of E. coli was “binds”.
